Measurements from patent US20240117056A1 (IBIO, published 2024).

B1: SD-382591-afuc (antibody, V domains shown)
VH: EVQLVQSGAEVKKPGASVKVSCKASGYTFTSYDINWVRQAPGQGLEWMGWIFPGDGTSKYAQKFQGRVTMTTDTSTSTAYMELSSLRSEDTAVYYCARRLGSHWGQGTTVTVSS
VL: DIQLTQSPSSLSASVGDRVTITCKASQSVDSDGDSYMNWYQQKPGKAPKLLIYGASNLESGVPSRFSGSGSGTDFTLTISSLQPEDFATYYCQQSHEYPFTFGQGTKLEIK
notes: afucosylated (FUT8 knock-out CHO)
B2: SD-837152-afuc (antibody, V domains shown)
VH: QVQLVQSGAEVKKPGASVKVSCKASGYTFTSYDINWVRQAPGQRLEWMGWIFPGDGTSKYNEKFKGRVTITRDTSASTAYMELSSLRSEDTAVYYCARRLGSHWGQGTLVTVSS
VL: DIVLTQSPASLAVSPGQRATITCKASQSVDSDGDSYMNWYQQKPGQPPKLLIYGASNLESGVPARFSGSGSGTDFTLTINPVEANDTANYYCQQSHEYPFTFGQGTKLEIK
notes: as for B1
B3: SD-757052-afuc (antibody, V domains shown)
VH: EVQLVQSGAEVKKPGASVKLSCKASGYTFTSYDINWVRQAPGQGLEWIGWIFPGDGTSKYAQKFQGRATLTTDTSTSTAYMELSSLRSEDTAVYYCARRLGSHWGQGTTLTVSS
VL: DIQLTQSPSSLSASVGDRATITCKASQSVDSDGDSYMNWYQQKPGKAPKLLIYGASNLESGIPSRFSGSGSGTDFTLTISSVQPEDFATYYCQQSHEYPFTFGQGTKLEIK
notes: as for B1
B4: SD-710726-afuc (antibody, V domains shown)
VH: EVQLVQSGAEVKKPGASVKLSCKASGYTFTSYDINWVRQAPGQGLEWIGWIFPGDGTSKYAQKFQGRATLTTDKSTSTAYMELSSLRSEDTAVYYCARRLGSHWGQGTTLTVSS
VL: DIQLTQSPSSLSASVGDRVTITCKASQSVDSDGDSYMNWYQQKPGKAPKLLIYGASNLESGVPSRFSGSGSGTDFTLTISSLQPEDFATYYCQQSHEYPFTFGQGTKLEIK
notes: as for B1
B5: SD-577776-afuc (antibody, V domains shown)
VH: EVQLVQSGAEVKKPGASVKLSCKASGYTFTSYDINWVRQAPGQGLEWIGWIFPGDGTSKYAQKFQGRATLTTDKSTSTAYMELSSLRSEDTAVYYCARRLGSHWGQGTTLTVSS
VL: DIQLTQSPSSLSASVGDRATITCKASQSVDSDGDSYMNWYQQKPGKAPKLLIYGASNLESGIPSRFSGSGSGTDFTLTISSVQPEDFATYYCQQSHEYPFTFGQGTKLEIK
notes: as for B1
B6: SD-633416-afuc (antibody, V domains shown)
VH: EVQLVQSGAEVKKPGASVKVSCKASGYTFTSYDINWVRQAPGQGLEWMGWIFPGDGTSKYAQKFQGRVTMTRDTSTSTVYMELSSLRSEDTAVYYCARRLGSHWGQGTTVTVSS
VL: DIQMTQSPSSLSASVGDRVTITCKASQSVDSDGDSYMNWYQQKPGKAPKLLIYGASNLESGVPSRFSGSGSGTDFTLTISSLQPEDFATYYCQQSHEYPFTFGQGTKLEIK
notes: as for B1
B7: SD-787077-afuc (antibody, V domains shown)
VH: EVQLVQSGAEVKKPGASVKVSCKASGYTFTSYDINWVRQAPGQGLEWMGWIFPGDGTSKYAQKFQGRVTMTTDKSTSTAYMELSSLRSEDTAVYYCARRLGSHWGQGTTVTVSS
VL: DIQLTQSPSSLSASVGDRVTITCKASQSVDSDGDSYMNWYQQKPGKAPKLLIYGASNLESGVPSRFSGSGSGTDFTLTISSLQPEDFATYYCQQSHEYPFTFGQGTKLEIK
notes: as for B1
B8: SD-638526-afuc (antibody, V domains shown)
VH: EVQLVQSGAEVKKPGASVKVSCKASGYTFTSYDINWVRQAPGQGLEWMGWIFPGDGTSKYAQKFQGRVTMTTDKSTSTAYMELSSLRSEDTAVYYCARRLGSHWGQGTTVTVSS
VL: DIQLTQSPSSLSASVGDRATITCKASQSVDSDGDSYMNWYQQKPGKAPKLLIYGASNLESGIPSRFSGSGSGTDFTLTISSVQPEDFATYYCQQSHEYPFTFGQGTKLEIK
notes: as for B1
B9: SD-844257-afuc (antibody, V domains shown)
VH: EVQLVQSGAEVKKPGASVKLSCKASGYTFTSYDINWVRQAPGQGLEWIGWIFPGDGTSKYAQKFQGRATLTTDTSTSTAYMELSSLRSEDTAVYYCARRLGSHWGQGTTLTVSS
VL: DIQLTQSPSSLSASVGDRVTITCKASQSVDSDGDSYMNWYQQKPGKAPKLLIYGASNLESGVPSRFSGSGSGTDFTLTISSLQPEDFATYYCQQSHEYPFTFGQGTKLEIK
notes: as for B1
B10: SD-741396-afuc (antibody, V domains shown)
VH: EVQLVQSGAEVKKPGASVKVSCKASGYTFTSYDINWVRQAPGQGLEWMGWIFPGDGTSKYAQKFQGRVTMTTDTSTSTAYMELSSLRSEDTAVYYCARRLGSHWGQGTTVTVSS
VL: DIQLTQSPSSLSASVGDRATITCKASQSVDSDGDSYMNWYQQKPGKAPKLLIYGASNLESGIPSRFSGSGSGTDFTLTISSVQPEDFATYYCQQSHEYPFTFGQGTKLEIK
notes: as for B1
B11: SD-233883-afuc (antibody, V domains shown)
VH: EVQLQQFGAELVKPGASVKLSCKASGYTFTSYDINWVRQRPEQGLEWIGWIFPGDGTSKYNEKFKGKATLSTDKSSSTAYMQLSRLTIEDSAVYFCARRLGSHWGQGSTLTVSS
VL: DIVLTQSPASLAVSLGQRATISCKASQSVDSDGDSYMNWYQQKPGQPPKLLIYGASNLESGIPARFSGSGSGTDFSLNIHPVEEEDAATYYCQQSHEYPFTFGGGTKLEIK
notes: afucosylated, made in FUT8 knock-out CHO cells; also called chimera

Assays:
[1] = biological target: T1, wild type human EGFR1 on cells (F98 EGFR1; wild type U87MG; wild type FaDu) (human, UniProt P00533 25-1210); assay: flow cytometry on F98 EGFR1 cells, anti-human IgG Fc Alexa Fluor 647, MFI
T1 construct: whole, on cells

[2] = biological target: T2, human EGFRvIII, purified recombinant protein (Acro Biosystems Cat #EGI-H52H4) (human, UniProt P00533 25-645); assay: ELISA, antigen coated at 1 ug/mL, anti-human IgG-HRP, n=3
T2 construct: Bought protein; the deletion must be applied; also called truncated human EGFRvIII; huEGFRvIII

[3] = biological target: T3, human EGFRvIII overexpressed on cells (F98npEGFRvIII, U87MG-EGFRvIII, FaDu-EGFRvIII) (human, UniProt P00533 25-1210); assay: flow cytometry, F98npEGFRvIII cells, n=3
T3 construct: whole, on cells; the vIII deletion must be applied; also called F98 EGFRvIII

[4] = biological target: T2, human EGFRvIII, purified recombinant …; assay: SPR (Carterra LSA), antibody captured on anti-human IgG, antigen injected, 1:1 Langmuir fit;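 note: EGFRvIII injected at five concentrations, fivefold serial dilution starting 500 nM, 5 min association then 15 min dissociation, double-referenced against interspot and buffer blank signals, global kinetic fit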
[5] = biological target: T4, human EGFR, purified recombinant protein (Acro Biosystems Cat #EGR-H5222) (human, UniProt P00533 25-645); assay: ELISA, plate coated with human EGFR1, anti-human IgG-HRP, OD450
T4 construct: Bought protein; also called EGFR1; full length human EGFR1

[6] = biological target: T3, human EGFRvIII overexpressed on cells …; assay: cell-based or functional assay
[7] = biological target: T1, wild type human EGFR1 on cells (F98 …); assay: flow cytometry on wild type U87MG cells, anti-human IgG Fc Alexa Fluor 647, MFI
[8] = biological target: T3, human EGFRvIII overexpressed on cells …; assay: cell-based or functional assay; remark: listed apart in the source
[9] = biological target: T3, human EGFRvIII overexpressed on cells …; assay: flow cytometry, FaDu-EGFRvIII cells, n=3
[10] = biological target: T3, human EGFRvIII overexpressed on cells …; assay: flow cytometry, U87MG-EGFRvIII cells, n=3
[11] = biological target: T3, human EGFRvIII overexpressed on cells …; assay: cell-based or functional assay; remark: listed apart in the source
[12] = biological target: T4, human EGFR, purified recombinant …; assay: SPR (Carterra LSA), antibody captured on anti-human IgG, EGFR1 injected in a 5-fold series from 500 nM
[13] = biological target: T4, human EGFR, purified recombinant …; assay: as above; remark: listed apart in the source

Binder	binding result [1]	EC50 [2] [nM]	EC50 [3] [nM]	Kd [4] [nM]	koff [4] [s⁻¹]	kon [4] [M⁻¹ s⁻¹]	binding result [5]	ADCC EC50 (nM), F98 EGFRvIII cells with PBMC [6] [nM]	binding result [7]	ADCC EC50 (nM), FaDu-EGFRvIII cells with PBMC [8] [nM]	EC50 [9] [nM]	EC50 [10] [nM]	ADCC EC50 (nM), U87MG-EGFRvIII cells with PBMC [11] [nM]	binding result [12]	binding result [13]
B1	no binding	0.103	4.13	131	0.0087	66000	no binding	0.106	–	–	–	–	–	–	–
B2	–	0.155	–	60	0.0026	43000	–	–	no binding	0.0058	4.98	5.75	0.0036	no binding	–
B3	no binding	0.112	4.17	105	0.006	57000	–	0.0562	–	–	–	–	–	–	no binding
B4	no binding	0.137	4.02	86	0.0043	51000	–	0.0168	–	–	–	–	–	–	no binding
B5	no binding	0.122	3.46	100	0.0058	57000	no binding	0.0687	–	–	–	–	–	–	–
B6	no binding	0.121	13.8	234	0.016	67000	no binding	0.289	–	–	–	–	–	–	–
B7	no binding	0.126	3.91	108	0.0077	71000	–	0.0605	–	–	–	–	–	no binding	–
B8	no binding	0.102	3.21	122	0.0088	73000	no binding	0.111	–	–	–	–	–	–	–
B9	no binding	0.111	3.85	90	0.0048	53000	–	0.0738	–	–	–	–	–	no binding	–
B10	no binding	0.091	5.12	159	0.011	66000	–	0.123	–	–	–	–	–	–	no binding
B11	no binding	0.144	2.07	40	0.003	74000	no binding	0.0082	–	0.0039	3.13	4.05	0.0026	–	–
